Target: T1, mouse eNOS (endogenous, thoracodorsal arteries) (mouse, UniProt P70313 2-1202)
T1 sequence (looked up): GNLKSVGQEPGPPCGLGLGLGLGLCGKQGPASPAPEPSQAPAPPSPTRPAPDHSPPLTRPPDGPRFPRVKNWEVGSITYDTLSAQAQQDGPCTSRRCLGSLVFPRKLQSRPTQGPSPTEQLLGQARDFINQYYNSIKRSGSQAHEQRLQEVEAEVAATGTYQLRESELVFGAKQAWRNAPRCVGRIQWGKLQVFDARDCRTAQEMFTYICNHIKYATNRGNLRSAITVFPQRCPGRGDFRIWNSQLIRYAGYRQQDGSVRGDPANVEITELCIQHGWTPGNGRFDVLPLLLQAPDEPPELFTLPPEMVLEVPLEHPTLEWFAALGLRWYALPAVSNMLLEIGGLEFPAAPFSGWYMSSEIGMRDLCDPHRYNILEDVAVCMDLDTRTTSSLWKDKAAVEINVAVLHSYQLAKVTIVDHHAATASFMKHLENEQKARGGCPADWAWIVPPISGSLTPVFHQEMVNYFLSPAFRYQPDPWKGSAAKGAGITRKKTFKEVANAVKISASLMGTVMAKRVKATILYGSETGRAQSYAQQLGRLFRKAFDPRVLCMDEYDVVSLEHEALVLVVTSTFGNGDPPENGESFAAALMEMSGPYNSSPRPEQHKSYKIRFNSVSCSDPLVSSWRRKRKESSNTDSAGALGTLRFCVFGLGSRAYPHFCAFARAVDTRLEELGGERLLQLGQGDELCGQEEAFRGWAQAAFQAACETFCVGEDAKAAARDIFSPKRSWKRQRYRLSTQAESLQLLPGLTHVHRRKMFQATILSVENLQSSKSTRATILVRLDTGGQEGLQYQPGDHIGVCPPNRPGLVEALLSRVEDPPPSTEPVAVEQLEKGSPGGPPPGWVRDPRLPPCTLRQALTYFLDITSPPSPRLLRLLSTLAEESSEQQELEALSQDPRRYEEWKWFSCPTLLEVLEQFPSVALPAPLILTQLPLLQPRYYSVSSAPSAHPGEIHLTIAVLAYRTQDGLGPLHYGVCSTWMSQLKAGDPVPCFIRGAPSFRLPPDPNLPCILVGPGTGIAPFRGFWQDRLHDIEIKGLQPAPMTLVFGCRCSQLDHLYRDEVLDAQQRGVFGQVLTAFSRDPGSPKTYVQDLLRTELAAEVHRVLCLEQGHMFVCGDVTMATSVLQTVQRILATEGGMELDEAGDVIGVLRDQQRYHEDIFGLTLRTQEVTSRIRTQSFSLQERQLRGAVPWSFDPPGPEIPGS
Test: cell-based or functional assay

YGRKKRRQRRRLSFPTTKTYF [Hb α X peptide (HIV-tat tag linked to LSFPTTKTYF)]
EC50 of phenylephrine ([PE] producing half of the maximum effect), thoracodorsal arteries treated with Hb α X: 6.8 µM

Source: patent US20180022779A1 (UNIVERSITY OF VIRGINIA PATENT FOUNDATION, published 2018)
